B1: JARID2 1–450 with K116me3 (within PRC2AJ1–450) (domain or fragment, UniProt Q92833 1-450, looked up)
chain: MSKERPKRNIIQKKYDDSDGIPWSEERVVRKVLYLSLKEFKNSQKRQHAEGIAGSLKTVNGLLGNDQSKGLGPASEQSENEKDDASQVSSTSNDVSSSDFEEGPSRKRPRLQAQRKFAQSQPNSPSTTPVKIVEPLLPPPATQISDLSKRKPKTEDFLTFLCLRGSPALPNSMVYFGSSQDEEEVEEEDDETEDVKTATNNASSSCQSTPRKGKTHKHVHNGHVFNGSSRSTREKEPVQKHKSKEATPAKEKHSDHRADSRREQASANHPAAAPSTGSSAKGLAATHHHPPLHRSAQDLRKQVSKVNGVTRMSSLGAGVTSAKKMREVRPSPSKTVKYTATVTKGAVTYTKAKRELVKDTKPNHHKPSSAVNHTISGKTESSNAKTRKQVLSLGGASKSTGPAVNGLKVSGRLNPKSCTKEVGGRQLREGLQLREGLRNSKRRLEEAHQA
modifications: trimethyl-lysine at K116 (JARID2 K116me3)
notes: JARID2 residues 1–450; Stood in the assay as a subunit of m1; also called JARID2 K116me3; methylated JARID2; source: Sf9 insect cells (baculovirus), purified as part of the PRC2 complex
B2: EED (core subunit, within the PRC2 complexes) (natural protein)
chain: not shown
notes: EED; Stood in the assay as a subunit of m1 or m2; source: Sf9 insect cells (baculovirus), purified as part of the PRC2 complex

What was measured:
[1] = biological target: T1, EZH2 (catalytic subunit, within the PRC2 complexes) (UniProt Q15910 1-746); experiment: cryo-EM structure; 100 nM nucleosome (biotinylated DNA, held on streptavidin affinity grids) with 500 nM PRC2 in 50 mM HEPES pH 7.5, 50 mM KCl, 0.5 mM TCEP, 100 µM S-adenosyl homocysteine; 3–5 min at room temperature; conditions: both partners purified
T1 construct: EZH2; Stood in the assay as a subunit of m1 or m2; source: Sf9 insect cells (baculovirus), purified as part of the PRC2 complex
T1 sequence (Q15910 whole entry, one chain of several): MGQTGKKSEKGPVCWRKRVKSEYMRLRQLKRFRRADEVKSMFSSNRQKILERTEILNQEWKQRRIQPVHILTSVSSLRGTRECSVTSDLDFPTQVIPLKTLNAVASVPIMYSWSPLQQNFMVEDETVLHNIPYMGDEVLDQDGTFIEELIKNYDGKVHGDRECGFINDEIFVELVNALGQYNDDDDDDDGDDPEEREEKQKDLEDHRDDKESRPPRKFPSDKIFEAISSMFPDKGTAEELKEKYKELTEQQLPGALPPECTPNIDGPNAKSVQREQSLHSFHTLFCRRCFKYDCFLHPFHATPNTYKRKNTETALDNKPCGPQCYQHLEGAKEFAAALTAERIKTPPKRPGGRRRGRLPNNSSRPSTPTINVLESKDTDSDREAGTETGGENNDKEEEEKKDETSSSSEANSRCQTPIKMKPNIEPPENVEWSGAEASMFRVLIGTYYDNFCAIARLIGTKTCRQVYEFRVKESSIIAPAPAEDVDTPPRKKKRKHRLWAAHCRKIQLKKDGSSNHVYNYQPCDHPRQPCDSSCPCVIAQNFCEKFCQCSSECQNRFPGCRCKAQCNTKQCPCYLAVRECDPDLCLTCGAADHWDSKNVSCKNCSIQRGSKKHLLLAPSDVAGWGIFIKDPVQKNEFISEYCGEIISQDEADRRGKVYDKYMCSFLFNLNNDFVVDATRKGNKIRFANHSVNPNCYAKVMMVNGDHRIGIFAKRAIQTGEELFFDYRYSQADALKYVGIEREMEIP

[2] = biological target: B1; experiment: as above; conditions: both partners purified

Binder	binding result [1]	binding result [2]
B1	binds	
B2		binds

Reference: paper PMC11832421, “Structural basis for the inhibition of PRC2 by active transcription histone posttranslational modifications” (Nature Structural & Molecular Biology, 2025)
